B1: anti-C2 antibody 59.45 (antibody, IgG4, V domains shown)
VH: QLQLQESGPGLVKTSETLSLTCTVSGGSITSGVYYWGWIRQPPGKGLEWIGSIYHGGNTYNNPSLKSRVTIFIDTSKNQFSLKLSSVTAADTAVYYCAEGVSSGWSYYFDYWGQGTLVTVSS
VL: SSELTQDPAVSVALGQTVRITCQGDSLRRFYASWYQQKPGQAPVLVGYGKNNRPSGIPDRFSGSTSGNAASLTITGSQAEDEADYYCNSRDSSGDHLIFGGGTKLTVL
notes: Recombinant
B2: anti-C2 antibody 83.16 (antibody, IgG4, V domains shown)
VH: QLQLQESGPGLVKSSETLSLTCTVSGGPISSSSYYWGWIRQPPGKGLEWIGTIYYSGRTYYNPSLKSRGTISVGTSKNQFSLKLSSVTAADTAVFYCAGGVGVTWDYWGQGTLVTVSS
VL: SYDLSQPLSVSVALGQTARITCGGNDIESKNVHWYQQRPGQAPVLVIYRNSNRPSGIPERFSGSNSGNTATLTISRGQGGDEADYYCQVWDSSTVIFGGGTKLTVL
notes: Recombinant
B3: anti-C2 antibody 139.14 (antibody, IgG4, V domains shown)
VH: QVQLRESGPGLMKPSETLSLTCTVSGGSVSSGVYYWTWIRQPPGKGLEWIGSMFYSGNADYNPSLKSRVTISVDTSKNQFSLRLNSVSAADMAVYYCARGYASGWSYYFDYWGQATLVTVSS
VL: SSELTQDPTVSVALGQTVRITCQGDSLRTYYASWYQQKPGQAPVLVLYGKNNRPSGIPDRFSGSSSGNTASLTITGAQAEDEADYYCNSRYSSGTHVVFGGGTKLTVL
notes: Recombinant
B4: anti-C2 antibody 48.14 (antibody, IgG4, V domains shown)
VH: EVQLLESGGGLVQPGGSLRLSCAASGFKFSYYAMSWVRQAPGKGLEWVSLISGSGYSTYFADSVKGRFTISRDNSKNTLYLQMNSLRAEDTAVYYCAKDSIAVAGSEYFQHWGQGTLVTVSS
VL: SYVLTQPPSVSVAPGQTARITCGGDNIGGKSVHWYQQKPGQAPVLVVYDDSDRPSGIPERFSGSDSGNTATLTISWVEAGDEADYYCQVWDDSSDHWVFGGGTKLTVL
notes: Recombinant
B5: anti-C2 antibody 39.4 (antibody, IgG4, V domains shown)
VH: B4 VH with R19S, A23T, K28T, Y31H, L50V, Y56A, Y59F, F60Y, K76E
VL: SYVLTQAPSVSVAPGQTARITCGGNNIGGKTVHWYQQKPGQAPMLVVYDDSDRPSGIPERFSGSKSGNMAILTISRVEAGDEADYYCQLYDIYSDHWVFGGGTKLTVL
notes: Recombinant
B6: anti-C2 antibody 34.5 (antibody, IgG4, V domains shown)
VH: QVQLQESGPGLVKPSQTLSLTCTVSGGSISRGGHQWTWIRQHPGKGLEWIGYIHHSGSTYYNPSLNDRLTILVDTPKNQFSLKLSSVTAADTAVYYCARWNLGSYGDYWGQGTLVTVSS
VL: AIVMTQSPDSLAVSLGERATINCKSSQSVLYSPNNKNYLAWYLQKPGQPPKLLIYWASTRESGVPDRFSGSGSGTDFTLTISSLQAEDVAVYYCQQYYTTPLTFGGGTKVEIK
notes: Recombinant
B7: anti-C2 antibody 199.1 (antibody, IgG4, V domains shown)
VH: B6 VH with T37S, H42N, G44E, D67N
VL: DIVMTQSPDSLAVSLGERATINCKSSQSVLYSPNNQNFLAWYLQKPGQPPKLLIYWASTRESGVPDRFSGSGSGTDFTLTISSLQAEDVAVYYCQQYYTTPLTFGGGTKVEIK
notes: Recombinant
B8: 3.2pHGL (3.2 pH construct derived from a human germline framework sequence) (antibody, V domains shown)
VH: B4 VH with K28T, S30R, Y31H, Y56A, Y59H, F60Y, I101L
VL: B4 VL with G24H, D25N, N26Y, I27F, D65N, W76R, W90Y, D92T
notes: also called germlined 3.2 pH

Substitutions are numbered along the chain they refer to.

In one test the target is T1, recombinant human complement C2 (NP_000054.2), C-terminal 6His-tag, made in house (CHO cell expression) (human, UniProt P06681 21-752).
T1 construct: a linker before the tag is not described; also called human C2; Human C2
T1 sequence: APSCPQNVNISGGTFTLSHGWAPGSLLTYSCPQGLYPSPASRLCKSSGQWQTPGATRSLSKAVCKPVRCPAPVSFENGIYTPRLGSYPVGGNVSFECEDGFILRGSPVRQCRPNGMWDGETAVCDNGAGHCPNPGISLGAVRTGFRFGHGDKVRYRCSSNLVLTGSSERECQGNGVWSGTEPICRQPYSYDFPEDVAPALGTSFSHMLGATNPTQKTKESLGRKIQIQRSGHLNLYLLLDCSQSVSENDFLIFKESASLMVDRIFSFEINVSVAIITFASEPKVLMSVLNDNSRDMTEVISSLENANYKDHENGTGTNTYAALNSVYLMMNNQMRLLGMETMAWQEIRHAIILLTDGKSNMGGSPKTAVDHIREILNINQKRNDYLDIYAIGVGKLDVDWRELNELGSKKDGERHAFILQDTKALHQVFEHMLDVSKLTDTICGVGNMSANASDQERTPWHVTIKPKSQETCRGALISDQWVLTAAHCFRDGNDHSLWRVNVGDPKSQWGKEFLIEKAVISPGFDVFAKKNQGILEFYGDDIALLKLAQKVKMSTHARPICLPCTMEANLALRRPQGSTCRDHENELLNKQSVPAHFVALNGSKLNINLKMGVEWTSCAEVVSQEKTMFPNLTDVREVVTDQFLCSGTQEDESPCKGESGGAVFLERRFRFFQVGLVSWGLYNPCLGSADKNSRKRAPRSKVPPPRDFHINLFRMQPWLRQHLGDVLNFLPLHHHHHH
As to the kind of experiment: ELISA.
As to B1, the EC50 (in general, the concentration giving half of the maximal effect) is 0.054 nM.
For B2, the EC50 stood at 0.0408 nM.
Take B3: the EC50 came out at 0.0599 nM.
For the molecule B4, the EC50 is 0.0514 nM.
Turning to B5, the EC50 worked out at 0.0576 nM.
Take B6: the EC50 was 0.0512 nM.
Turning to B7, the EC50 turned out to be 0.0479 nM.

Another test deals with T2, recombinant human C2a, C-terminal 6His-tag, made in house (CHO cell expression) (human, UniProt P06681 244-752).
T2 sequence: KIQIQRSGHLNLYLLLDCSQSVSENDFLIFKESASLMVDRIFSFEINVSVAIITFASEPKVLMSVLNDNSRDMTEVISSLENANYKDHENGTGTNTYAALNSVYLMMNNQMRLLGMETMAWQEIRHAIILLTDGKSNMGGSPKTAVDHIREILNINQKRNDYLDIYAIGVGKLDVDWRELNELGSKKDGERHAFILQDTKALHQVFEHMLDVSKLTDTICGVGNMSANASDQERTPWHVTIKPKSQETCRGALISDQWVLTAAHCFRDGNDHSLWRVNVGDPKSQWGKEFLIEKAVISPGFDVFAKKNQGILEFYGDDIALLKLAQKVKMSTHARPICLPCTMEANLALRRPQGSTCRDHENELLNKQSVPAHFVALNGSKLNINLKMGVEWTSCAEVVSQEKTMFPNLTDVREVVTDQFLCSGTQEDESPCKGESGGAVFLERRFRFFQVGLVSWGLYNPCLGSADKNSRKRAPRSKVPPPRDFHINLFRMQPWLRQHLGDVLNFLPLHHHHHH
The experiment in a line: ELISA. Background: An ELISA detects its analyte on a solid surface through an enzyme-linked reagent.
B1: the EC50 stood at 0.124 nM.
Still for that read-out and setting: in the case of B3 it was 0.131 nM.

A further test has as its target T3, recombinant cynomolgus (cyno) complement C2 (XP_005553508.1), C-terminal 6His-tag, made in house (CHO cell … (cynomolgus monkey (Macaca fascicularis), UniProt P06681 21-752 (human entry))).
T3 construct: also called cyno C2; Cyno C2
T3 chain: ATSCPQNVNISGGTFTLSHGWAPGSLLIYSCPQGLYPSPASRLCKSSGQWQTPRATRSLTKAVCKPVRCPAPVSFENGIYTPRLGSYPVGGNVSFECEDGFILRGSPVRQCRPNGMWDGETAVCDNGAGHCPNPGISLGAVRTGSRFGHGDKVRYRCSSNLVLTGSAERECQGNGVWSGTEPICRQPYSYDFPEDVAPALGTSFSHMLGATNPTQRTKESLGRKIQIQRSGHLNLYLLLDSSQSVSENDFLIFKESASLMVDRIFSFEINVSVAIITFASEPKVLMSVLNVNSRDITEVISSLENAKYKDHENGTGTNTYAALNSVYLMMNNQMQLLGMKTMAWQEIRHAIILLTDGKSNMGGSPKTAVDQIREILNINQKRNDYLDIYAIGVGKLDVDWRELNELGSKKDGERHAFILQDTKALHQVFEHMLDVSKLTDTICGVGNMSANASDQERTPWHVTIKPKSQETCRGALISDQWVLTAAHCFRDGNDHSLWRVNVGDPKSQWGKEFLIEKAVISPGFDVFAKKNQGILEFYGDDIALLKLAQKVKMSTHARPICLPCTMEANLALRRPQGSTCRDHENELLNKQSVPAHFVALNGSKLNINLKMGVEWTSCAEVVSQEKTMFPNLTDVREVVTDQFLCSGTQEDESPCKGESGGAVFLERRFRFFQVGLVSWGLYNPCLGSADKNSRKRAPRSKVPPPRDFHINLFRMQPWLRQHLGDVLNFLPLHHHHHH
As to the kind of experiment: ELISA.
For the molecule B1, the EC50 is 0.263 nM.
Regarding B2, the EC50 turned out to be 0.0397 nM.
The same measure, in the same setting: in the case of B3 it was 0.115 nM; in that of B4, 0.0682 nM.
With B5, the EC50 is 0.0869 nM.
Consider B6, for which the EC50 came to 0.0521 nM.
Regarding B7, the EC50 was 0.05 nM.

A further test deals with T4, recombinant cyno C2a, C-terminal 6His-tag, made in house (CHO cell expression) (cynomolgus monkey, UniProt P06681 244-752 (human entry)).
T4 chain: T2 sequence with C18S, D68V, M73I, N84K, R112Q, E117K, H148Q
As to the kind of experiment: ELISA.
With B1, the EC50 was 0.123 nM.
On to B3, for which the EC50 is 0.208 nM.

The next test addresses T4, recombinant cyno C2a, C-terminal …. As to the kind of experiment: ELISA on cyno C2a, OD450nm against log Ab conc. (nmol/L).
Regarding B2, the binding result is given as “no binding (tested: 100 nmol/L)”.
B4: the binding result is recorded as “no binding (tested: 100 nmol/L)”.
As to B5, the binding result is on record as “no binding (tested: 100 nmol/L)”.
With B6, the binding result is “no binding (tested: 100 nmol/L)”.
Turning to B7, the binding result was “no binding (tested: 100 nmol/L)”.

The target in the next test is T2, recombinant human C2a, C-terminal …. As to the kind of experiment: ELISA on human C2a, OD450nm against log Ab conc. (nmol/L).
Turning to B2, the binding result is given as “no binding (tested: 100 nmol/L)”.
Same read-out and setting: in the case of B4 it was “no binding (tested: 100 nmol/L)”; in that of B5, “no binding (tested: 100 nmol/L)”; in that of B6, “no binding (tested: 100 nmol/L)”.
Turning to B7, the binding result is given as “no binding (tested: 100 nmol/L)”.

The next test addresses T1, recombinant human complement C2 …. As to the kind of experiment: drawn kinetic table; method and antigen not printed on the sheet, legend paragraph 101 says only anti-C2 antibodies; human C2 taken from the context of Examples 5 and 10.
As to B8, the Kd (as a rule, the equilibrium constant for the complex coming apart) was 0.138 nM; the koff (as a rule, the rate constant with which the complex falls apart) was determined as 4.05e-05 s⁻¹; the kon (as a rule, the rate constant with which the complex forms) came to 294000 M⁻¹ s⁻¹.

Source of the values: patent publication US20250376539A1 (KIRA PHARMACEUTICALS SUZHOU, published 2025).
